From article PMC5923235
Blank lines part the entries; values can stand above or below the substance they belong to.

Columns and labels:
[1] = target: NTS1 S(C)172C^3.55 (TM3, re-introduced native Cys) in the Cys-depleted background of rat neurotensin receptor 1 (rat) (UniProt P20789); assay: FRET or BRET; ensemble FRET; A488- and A555-labelled NTS1 reconstituted together 1:1 in brain polar lipid liposomes; apo; ~1 μM receptor; 50 mM Tris-HCl pH 7.4, 50 mM NaCl, 1 mM EDTA, 10% glycerol; room temperature; Ecor corrected for donor-to-acceptor ratio
[2] = target: NTS1 S(C)172C^3.55 (TM3, re-introduced native Cys) in the Cys-depleted background of rat neurotensin receptor 1 (rat) (UniProt P20789); assay: FRET or BRET; ensemble FRET as for the apo samples, with 5 μM agonist neurotensin (+NT); A488- and A555-labelled NTS1 1:1 in brain polar lipid liposomes; room temperature
[3] = target: NTS1 Q378C^8.52 (H8) in the Cys-depleted background of rat neurotensin receptor 1 (rat) (UniProt P20789); assay: FRET or BRET; ensemble FRET; A488- and A555-labelled NTS1 reconstituted together 1:1 in brain polar lipid liposomes; apo; ~1 μM receptor; 50 mM Tris-HCl pH 7.4, 50 mM NaCl, 1 mM EDTA, 10% glycerol; room temperature; Ecor corrected for donor-to-acceptor ratio
[4] = target: NTS1 Q378C^8.52 (H8) in the Cys-depleted background of rat neurotensin receptor 1 (rat) (UniProt P20789); assay: FRET or BRET; ensemble FRET as for the apo samples, with 5 μM agonist neurotensin (+NT); A488- and A555-labelled NTS1 1:1 in brain polar lipid liposomes; room temperature
[5] = target: NTS1 Y104C^2.41 (TM2) in the Cys-depleted background of rat neurotensin receptor 1 (rat) (UniProt P20789); assay: FRET or BRET; ensemble FRET; A488- and A555-labelled NTS1 reconstituted together 1:1 in brain polar lipid liposomes; apo; ~1 μM receptor; 50 mM Tris-HCl pH 7.4, 50 mM NaCl, 1 mM EDTA, 10% glycerol; room temperature; Ecor corrected for donor-to-acceptor ratio
[6] = target: NTS1 Y104C^2.41 (TM2) in the Cys-depleted background of rat neurotensin receptor 1 (rat) (UniProt P20789); assay: FRET or BRET; ensemble FRET as for the apo samples, with 5 μM agonist neurotensin (+NT); A488- and A555-labelled NTS1 1:1 in brain polar lipid liposomes; room temperature
[7] = target: NTS1 V307C^6.34 (TM6) in the Cys-depleted background of rat neurotensin receptor 1 (rat) (UniProt P20789); assay: FRET or BRET; ensemble FRET; A488- and A555-labelled NTS1 reconstituted together 1:1 in brain polar lipid liposomes; apo; ~1 μM receptor; 50 mM Tris-HCl pH 7.4, 50 mM NaCl, 1 mM EDTA, 10% glycerol; room temperature; Ecor corrected for donor-to-acceptor ratio
[8] = target: NTS1 V307C^6.34 (TM6) in the Cys-depleted background of rat neurotensin receptor 1 (rat) (UniProt P20789); assay: FRET or BRET; ensemble FRET as for the apo samples, with 5 μM agonist neurotensin (+NT); A488- and A555-labelled NTS1 1:1 in brain polar lipid liposomes; room temperature
[9] = target: NTS1 L371C^7.55 (TM7) in the Cys-depleted background of rat neurotensin receptor 1 (rat) (UniProt P20789); assay: FRET or BRET; ensemble FRET; A488- and A555-labelled NTS1 reconstituted together 1:1 in brain polar lipid liposomes; apo; ~1 μM receptor; 50 mM Tris-HCl pH 7.4, 50 mM NaCl, 1 mM EDTA, 10% glycerol; room temperature; Ecor corrected for donor-to-acceptor ratio
[10] = target: NTS1 L371C^7.55 (TM7) in the Cys-depleted background of rat neurotensin receptor 1 (rat) (UniProt P20789); assay: FRET or BRET; ensemble FRET as for the apo samples, with 5 μM agonist neurotensin (+NT); A488- and A555-labelled NTS1 1:1 in brain polar lipid liposomes; room temperature
[11] = target: NTS1 A261C^5.52 (TM5) in the Cys-depleted background of rat neurotensin receptor 1 (rat) (UniProt P20789); assay: FRET or BRET; ensemble FRET; A488- and A555-labelled NTS1 reconstituted together 1:1 in brain polar lipid liposomes; apo; ~1 μM receptor; 50 mM Tris-HCl pH 7.4, 50 mM NaCl, 1 mM EDTA, 10% glycerol; room temperature; Ecor corrected for donor-to-acceptor ratio
[12] = target: NTS1 A261C^5.52 (TM5) in the Cys-depleted background of rat neurotensin receptor 1 (rat) (UniProt P20789); assay: FRET or BRET; ensemble FRET as for the apo samples, with 5 μM agonist neurotensin (+NT); A488- and A555-labelled NTS1 1:1 in brain polar lipid liposomes; room temperature
[13] = target: NTS1 T186C^4.42 (TM4) in the Cys-depleted background of rat neurotensin receptor 1 (rat) (UniProt P20789); assay: FRET or BRET; ensemble FRET; A488- and A555-labelled NTS1 reconstituted together 1:1 in brain polar lipid liposomes; apo; ~1 μM receptor; 50 mM Tris-HCl pH 7.4, 50 mM NaCl, 1 mM EDTA, 10% glycerol; room temperature; Ecor corrected for donor-to-acceptor ratio
[14] = target: NTS1 T186C^4.42 (TM4) in the Cys-depleted background of rat neurotensin receptor 1 (rat) (UniProt P20789); assay: FRET or BRET; single-molecule FRET by TIRF microscopy; Cy3- and Cy5-labelled NTS1 T186C in DPhPC droplet interface bilayers, 100:405:45 Cy3:Cy5:unlabelled, receptor density 0.43 μm^-2; 50 mM NaCl, 1 mM EDTA, 50 mM Tris-HCl pH 7.4; 30 ms frames; constants are of dimer to monomers in two dimensions
[15] = target: NTS1 T186C^4.42 (TM4) in the Cys-depleted background of rat neurotensin receptor 1 (rat) (UniProt P20789); assay: FRET or BRET; ensemble FRET as for the apo samples, with 5 μM agonist neurotensin (+NT); A488- and A555-labelled NTS1 1:1 in brain polar lipid liposomes; room temperature
[16] = target: NTS1 A90C^1.58 (TM1) in the Cys-depleted background of rat neurotensin receptor 1 (rat) (UniProt P20789); assay: FRET or BRET; ensemble FRET; A488- and A555-labelled NTS1 reconstituted together 1:1 in brain polar lipid liposomes; apo; ~1 μM receptor; 50 mM Tris-HCl pH 7.4, 50 mM NaCl, 1 mM EDTA, 10% glycerol; room temperature; Ecor corrected for donor-to-acceptor ratio
[17] = target: NTS1 A90C^1.58 (TM1) in the Cys-depleted background of rat neurotensin receptor 1 (rat) (UniProt P20789); assay: FRET or BRET; ensemble FRET as for the apo samples, with 5 μM agonist neurotensin (+NT); A488- and A555-labelled NTS1 1:1 in brain polar lipid liposomes; room temperature

- Ecor(apo) [1]: 1.03
- Ecor(+NT) [2]: 1.02
Substance: NTS1 S(C)172C^3.55 (TM3, re-introduced native Cys) in the Cys-depleted background of rat neurotensin receptor 1 (from UniProt P20789 43-424)

- Ecor(apo) [3]: 0.89
- Ecor(+NT) [4]: 0.89
Substance: NTS1 Q378C^8.52 (H8) in the Cys-depleted background of rat neurotensin receptor 1 (from UniProt P20789 43-424)

- Ecor(apo) [5]: 0.9
- Ecor(+NT) [6]: 0.9
Substance: NTS1 Y104C^2.41 (TM2) in the Cys-depleted background of rat neurotensin receptor 1 (from UniProt P20789 43-424)

- Ecor(apo) [7]: 0.99
- Ecor(+NT) [8]: 0.82
Substance: NTS1 V307C^6.34 (TM6) in the Cys-depleted background of rat neurotensin receptor 1 (from UniProt P20789 43-424)

- Ecor(apo) [9]: 0.68
- Ecor(+NT) [10]: 0.7
Substance: NTS1 L371C^7.55 (TM7) in the Cys-depleted background of rat neurotensin receptor 1 (from UniProt P20789 43-424)

- Ecor(apo) [11]: 0.98
- Ecor(+NT) [12]: 1.05
Substance: NTS1 A261C^5.52 (TM5) in the Cys-depleted background of rat neurotensin receptor 1 (from UniProt P20789 43-424)

- Ecor(apo) [13]: 0.77
- dimer half-life t1/2 [14]: 1.2 s
- koff [14]: 0.58 s⁻¹
- percent of receptors as dimers at 0.43 molecules per μm^2 [14]: 9.8%
- stoichiometry N [14]: 2
- Ecor(+NT) [15]: 0.78
Substance: NTS1 T186C^4.42 (TM4) in the Cys-depleted background of rat neurotensin receptor 1 (from UniProt P20789 43-424)

- Ecor(apo) [16]: 0.73
- Ecor(+NT) [17]: 0.77
Substance: NTS1 A90C^1.58 (TM1) in the Cys-depleted background of rat neurotensin receptor 1 (from UniProt P20789 43-424)
